Assay results reported in publication PMC4204210 (Molecular cell, 2014).

Target: the molecule itself
Experiment: SEC-MALS

B1: Get3 purified under reducing conditions (Get3red) (natural protein, yeast)
chain: MDLTVEPNLHSLITSTTHKWIFVGGKGGVGKTTSSCSIAIQMALSQPNKQFLLISTDPAHNLSDAFGEKFGKDARKVTGMNNLSCMEIDPSAALKDMNDMAVSRANNNGSDGQGDDLGSLLQGGALADLTGSIPGIDEALSFMEVMKHIKRQEQGEGETFDTVIFDTAPTGHTLRFLQLPNTLSKLLEKFGEITNKLGPMLNSFMGAGNVDISGKLNELKANVETIRQQFTDPDLTTFVCVCISEFLSLYETERLIQELISYDMDVNSIIVNQLLFAENDQEHNCKRCQARWKMQKKYLDQIDELYEDFHVVKMPLCAGEIRGLNNLTKFSQFLNKEYNPITDGKVIYELEDKE
stoichiometry N: 2

B2: Get3 oxidised with 2 mM H2O2 / 50 µM Cu2+ (Get3ox) (natural protein, yeast)
chain: B1 chain
modifications: intramolecular disulfide bonds connecting the next-neighbor conserved cysteines (C242/C244 and C285/C288)
stoichiometry N: 4
